Here are results for 14 sequences from the DeepSol protein solubility set.

This data set in a line: soluble on expression in E. coli; label from the status in PepcDB or PDB records.
With “MGSDKIHHHHHHMNYRTIAKNGSTEETIKKSRFICQAKRITNEAEGRDFITQIKKEHYKARHSCSAMIIGENSDIKRSSDDGEPSGTAGIPMLSVLEKKQLTNLVLVVTRYFGGIKLGTGGLIRAYSGGAANTLKALGIVEVKKQTGLRLELTYPQYQTFANFLKEHQLQEYDTDFSVTVNTTIYVDKKDIEFTLDQLTEFYQGKLKSHVAGNQIIEVPVI”, the “soluble on expression in E. coli” value was “not soluble”. As to “FSQHVSANLNLPSPSLNTPLNWLLTSVDEVMFNQQLHGSAVHINCAFPEPLYSDGEKSAYQSYLSSVEAWRKGGQTYTQRFVSPSFRDIPFCADRKGVVVIGSLSAEHAQEAKAFAQQMGWPVLADPQSGVSSDWSHYDLWLQQPKLASQLDECDLVLQFGSRIISKRLNQWINKQVSQSQQGRDVQYWFISPSLSRDNQTHLPQLHWVASPKSWVERVDVKSSSTQGWADGLLTDIAHVRAHISDEFLFSSASTLNEIALAADIEERTQSVDVFLGNSLFVRLVDMFGRLNTEVFTNRGASGIDGLFATASGVQRSRGKPLLMYIGDTSALYDLNSLALFSRNDLPSVLVVTNNDGGAIFDMLPVPQEHRTAYYQMPHGYQFEHAAKQFGLKYEKPTTLQMYQAMVADHLSSGQGTMLVEVQTPPSQAAELIKAFNKSLHASL”, the “soluble on expression in E. coli” value is given as “not soluble”. On to “MSELRALIREILVEELAALRAAPAATPACEMVDVHSDEALMAFARDLLGRANDPEFVRCVQSGQHRFTLAPTVAQPPGQRPAPAASFTLVASAPAEAPRFEKALVTERDVAAIPRDQSRIRLARNTRLTPLASDELRRRGIRIERTQK”, for which the “soluble on expression in E. coli” value was “not soluble”.

As for “MAHHHHHHMQKTLFDFVRKGTSSGPAAANAVAAAHRERQWPSASNGEDSTPRTDSPPKKHAKTRREGSRSRGNSRECEGTSLKGASRDDAIDLDASVSVALLESTFPPSEEGGAIDKSKHVSSGTAVPAGAAATAAASSGTARSDAPQLQPAATSSRWLAGLITNLEWRDFLAPITVDSWRSGAFARIEHFLDGEMAKGKVILPPATDIFNAFNSCPFRDLKVVLLGQDPYHDLHQAHGLCFSVLPEVPLPPSLRNIYKELTTDIPGFQAPRHGYLQSWSEQGMLMLNATLTVEAHKANSHSKASGWTAFTDAVIQHLSQHHPNRLVFLLWGGYAQQKKKLIDASRHIVLESVHPSPLSASRGWFGCHCFSACNEALQSMGHLPMHWQLPLNASLP”, the “soluble on expression in E. coli” value was “not soluble”. On to “MSKQLLALNIDGALLRSNGKIHQATKDAIEYVKKKGIYVTLVTNRHFRSAQKIAKSLKLDAKLITHSGAYIAEKIDAPFFEKRISDDHTFNIVQVLESYQCNIRLLHEKYSIGNKKKVNSNLLGKALIHPSDPIFYPVQFVESLSDLLMDEPVSAPVIEVYTEHDIQHDITETITKAFPAVDVIRVNDEKLNIVPKGVSKEAGLALVASELGLSMDDVVAIGHQYDDLPMIELAGLGVAMGNAVPEIKRKADWVTRSNDEQGVAYMMKEYFRMQQRKGFLDKFHMKRV”, for which the “soluble on expression in E. coli” value is “not soluble”.

For “MGSDKIHHHHHHLRLFGTKDEQLFMLFSESARVVVRGGDILQNVVNDYSDLDIKMAKLTAMEHEGDRIIQELIRRLNTSFILPFDREDAFQLAQKLSTTLDYITGIIDRMILYKTGRPNKRVKEMVNVLCEALFLQERALNLLQSLEHNKREILECCEEIRQLERKQDNHYRQGLALLFENEEEPIVIIKWREVYEHIEMAQDYVQDVAELISNICVKYS”, the “soluble on expression in E. coli” value was “not soluble”. Regarding “MSGAIYRCMAIASEPLDALIIGAGHNGLVCAAYLARAGKRVLVLEAREVVGGAAVTEEFHPGFRNSVAAYTVSLLQPRVIADLALERHGLRVVPRRINNFLPLPNGDYLLAGAGRTAQDVARFSARDAAALPAYEARLEQLADVLRALALQPPPDVTDGGWLQALPQLWRAGKLGLQLQGLPLTLRQELLDLFTISAAEYLDRWFESAPIKALFGFDGIVGNYASPHTPGTAYVLLHHVFGQSNGVKGAWGHAIGGMGAITQAMAASAREYGAQLRTGCAVERVLVEQGHAVGVVTTAGETVRARAVVANVNPKLLYQRLMRPDDVPATTRERIAHYRCGSGTFRMNVALSRLPDFAALPGNGDHLTAGIILAPSLDYMDRAWHDARAFGWSREPVVELLIPSTLDDTLAPPGQHVASLFCQHVAPQLPDGRRWDDHREEVADLMIATVERYAPGFAASVLGRQVLSPLDLERMFGLVGGDIFHGALSLNQLFSARPLLGQGAYRGAVPGLYLCGSGTHPGGGVTGAPGHNAARVILGGLEHHHHHH”, the “soluble on expression in E. coli” value is “not soluble”. Take “MGSDKIHHHHHHMWIEQRLWTPEGGWTVTETSPGKASLVLYFAAPGALTPESILADLRVAYGNAPILGCTTGGEILGPEVLDDSIVVSALGFDKASVRMASRDLSDVSQSRETGAALARELAGEDLRAIFILSDGTKVNGDSLVAGCLSAVTSDVVVTGGLAGDGARFQTTAVGCSDAMRPGRVAAVGFYGDSLAIGHGSFGGWDEFGPPRTITRSAANVLYELDGEPALDLYKRYLGEEAQGLPGSALLFPLSIRPSGDDAGAEVVRTIVGIDEEAKSMIFAGDVPTGHLARLMRGNFDNLVDGAGRAAEAAAAIKGPSLGLLVSCIGRKLLMGQRIAEEVEIVSDVLGKEASLMGFYSYGEISPHGFTGKCELHNQTMTITTISER”: the “soluble on expression in E. coli” value was “not soluble”.

For “MEKELKALTKRLQQYNEQLLLIARRARERNEEPDFFGDVKPMAEEVQAVAERWKDAASRWVRHARPKYVHERQIEAAADHMAKLCVEAFYPSVPERRIKQYSQAVAYTLALVKERLDDTSEAGKERL”, the “soluble on expression in E. coli” value is “not soluble”. The result for “MGHHHHHHSHMECETDEQKQGSDENMSECETSSVCSSSDTGLFTNDEGRQGDDEQSDWFYEGECVPGFTVPNLLPKWAPDHCSEVERMDSGLDKFSDSTFLLPSRPAQRGYHTRLNRLPGAAARCLRKGRRRLVGKETSINTLGTERISHIISDPRQKDFWLPSAGKRERNQFNPLSPLYSLDVLADASHRRCSPAHCSARQANVHWGPPCSRVIKRKRKPVATASLSSPSAVHMDAVEPTTPASQAPKSPSSEWLVRTSAAEKATDATTATFFKMPQEKSPGYS” reads “not soluble”; that for “MSLLKCSICINDERITRILIVDGRPICKECKVFLEHPPDKEKIKKELEEILSKVDKAIVAYSGGKDSIVALYLAKEKYSIDVEAVMVDHGFIAPQAIKNAKNVAKYLDVPLTIIKRDYSDIFREALLKAKSPCRKCSRRTMEILRKYALKKGYRYMITGHELPFGHHPYRLMSGGIIQVRILSLMSEEERMKILKKLPVELPELPGYTSNCLILGPALQRFWERHGYSFEHRRIAALVRYGLLNKEKALKKVQKPEVPQWQWELVKKKLKLEDGFEGHHHHHH”, “soluble”. The result for “MGSDKIHHHHHHMHLLFPEVCILCQKPLGEGEEHICAGCFNDFNPFPSVLAGGAALKSTVRAHFGEKAVPAAAWCLYPYRSRGSLHEAMHAMKYGGLFPLGELFGKRLGELICQGGVPVGFDAIVPVPLHHLKRIERTYNQAEALARGMAGLIGLPVATRSLERCVYTGTQTGLGLEARRENMAGAFRPGRERCPARVLLVDDVLTTGATMVSAAKVLKAAGAVEVAFATVALTEKE” reads “not soluble”.

As for “MTLRAAVFDLDGVLALPAVFGVLGRTEEALALPRGLLNDAFQKGGPEGATTRLMKGEITLSQWIPLMEENCRKCSETAKVCLPKNFSIKEIFDKAISARKINRPMLQAALMLRKKGFTTAILTNTWLDDRAERDGLAQLMCELKMHFDFLIESCQVGMVKPEPQIYKFLLDTLKASPSEVVFLDDIGANLKPARDLGMVTILVQDTDTALKELEKVTGIQLLNTPAPLPTSCNPSDMSHGYVTVKPRVRLHFVELGSGPAVCLCHGFPESWYSWRYQIPALAQAGYRVLAMDMKGYGESSAPPEIEEYCMEVLCKEMVTFLDKLGLSQAVFIGHDWGGMLVWYMALFYPERVRAVASLNTPFIPANPNMSPLESIKANPVFDYQLYFQEPGVAEAELEQNLSRTFKSLFRASDESVLSMHKVCEAGGLFVNSPEEPSLSRMVTEEEIQFYVQQFKKSGFRGPLNWYRNMERNWKWACKSLGRKILIPALMVTAEKDFVLVPQMSQHMEDWIPHLKRGHIEDCGHWTQMDKPTEVNQILIKWLDSDARNPPVVSKM”, the “soluble on expression in E. coli” value is recorded as “soluble”.

Turning to “MEGVMGQVEKRPISTIVFIVAMQKEAQPLINRLRLVEEVNTPFPKEVTWIMFKGMYKDLNINIVCPGKDSTLGVESVGTVPASLVTYASILAIQPDLIINAGTAGGFKAKGACISDVYVVSTVAFHDRRIPVPVLDIYGVGMRNTFPTPNLIKELNLKVGRLSTGDSMDMSPHDEESITANDATVKDMEGAAVAYVADIFKVPTILIKGVTDIVDGNRPTSEEFLENLAAVTAKLDESLTKVIDFISGKCLSDL”, the “soluble on expression in E. coli” value is listed as “soluble”.
